Data taken from patent publication US20210047410A1 (ONCOLMMUNE, published 2021).

Columns and labels:
[1] = molecular target: OFP-tagged human CTLA-4 on CHO cells (human) (UniProt P16410)
[2] = molecular target: human CTLA-4-Fc (human) (UniProt P16410); assay: competition ELISA: hCTLA-4-Fc coated at 1 µg/ml, blocked ligand biotinylated hB7-1-Fc at […], antibody varied
[3] = molecular target: human CTLA-4-Fc (human) (UniProt P16410); assay: ELISA: antibody coated at varying doses, biotinylated CTLA-4-Fc at […], streptavidin-HRP
[4] = molecular target: human CTLA-4-Fc (human) (UniProt P16410); assay: flow cytometry, competition: biotinylated CTLA-4-Fc on CHO cells expressing mB7-2 (blocked ligand), antibody varied, PE-streptavidin
[5] = molecular target: human CTLA-4-Fc (human) (UniProt P16410); assay: flow cytometry, competition: 200 ng hCTLA-4-Fc on CHO cells expressing mouse B7-1 (blocked ligand), antibody varied
[6] = molecular target: human CTLA-4-Fc (human) (UniProt P16410); assay: competition ELISA: hCTLA-4-Ig immobilized at […], blocked ligand biotinylated hB7-1-Fc at […], antibody varied, avidin-HRP
[7] = molecular target: human CTLA-4-Fc (human) (UniProt P16410); assay: competition ELISA: B7-2-Fc immobilized (blocked ligand), biotinylated CTLA-4-Fc at […], antibody varied
[8] = molecular target: human CTLA-4-Fc (human) (UniProt P16410); assay: competition ELISA; hB7-2-Fc coated, biotinylated CTLA-4-Fc at […]
[9] = molecular target: human CTLA-4-Fc (human) (UniProt P16410); assay: flow cytometry, competition: biotinylated CTLA-4-Fc on CHO cells expressing hB7-1 (blocked ligand), antibody varied, PE-streptavidin
[10] = molecular target: human CTLA-4 on or in cells (T cells of Ctla4 h/h knock-in mice; CHO stable lines and 293T cells expressing hCTLA-4) (human) (UniProt P16410); assay: cell-based or functional assay
[11] = molecular target: polyhistidine tagged human CTLA-4 (human) (UniProt P16410); assay: flow cytometry, competition: 200 ng biotinylated polyhistidine-tagged CTLA-4 on CHO cells expressing human B7-1 (blocked ligand), antibody varied, PE-streptavidin
[12] = molecular target: human CTLA-4-Fc (human) (UniProt P16410); assay: BLI (Octet Red96); antibody on anti-hIgG-Fc biosensor, antigen in solution from 600 nM
[13] = molecular target: human CTLA-4-Fc (human) (UniProt P16410); assay: flow cytometry, competition: biotinylated CTLA-4-Fc 200 ng/test on hB7-1-positive, FcR-negative L929 cells (blocked ligand), antibody varied, PE-streptavidin
[14] = molecular target: human CTLA-4-Fc (human) (UniProt P16410); assay: competition ELISA; hB7-1-Fc coated at 0.5 µg/ml, biotinylated CTLA-4-Fc at […]
[15] = molecular target: T1, Recombinant mouse Ctla-4Fc protein (mouse, UniProt P09793 36-162, limits assumed); assay: competition ELISA: B7-1 coated (blocked ligand), biotinylated mouse Ctla-4-Fc, antibody varied, avidin-HRP
T1 construct: Bought; also called biotinylated mouse Ctla-4-Fc; not shown: Fc part; not described

[16] = molecular target: T1, Recombinant mouse Ctla-4Fc protein; assay: competition ELISA: B7-2 coated (blocked ligand), biotinylated mouse Ctla-4-Fc, antibody varied, avidin-HRP
[17] = molecular target: T1, Recombinant mouse Ctla-4Fc protein; assay: competition ELISA: mB7-2 coated (blocked ligand), biotinylated mouse Ctla-4-Fc, antibody varied
[18] = molecular target: T1, Recombinant mouse Ctla-4Fc protein; assay: ELISA, binding to soluble mouse Ctla-4-Fc; neither sheet nor legend says which component's concentration is on the axis
[19] = molecular target: mouse Ctla-4 in cells (spleen CD3+CD4+ cells of Ctla4 m/m mice) (mouse) (UniProt P09793); assay: cell-based or functional assay
[20] = molecular target: T1, Recombinant mouse Ctla-4Fc protein; assay: ELISA: plate bound mouse Ctla-4-Fc, antibody varied
[21] = molecular target: polyhistidine tagged human CTLA-4 (human) (UniProt P16410); assay: ELISA; His-hCTLA-4 coated at 0.5 µg/ml, varying antibody doses
[22] = molecular target: human CTLA-4-Fc (human) (UniProt P16410); assay: BLI (Octet Red96)

Sequence of human CTLA-4-Fc (human) (P16410 37-161 limits assumed): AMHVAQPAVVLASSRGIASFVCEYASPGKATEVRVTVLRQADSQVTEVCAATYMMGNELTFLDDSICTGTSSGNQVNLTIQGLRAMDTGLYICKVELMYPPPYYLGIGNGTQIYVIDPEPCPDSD
Sequence of polyhistidine tagged human CTLA-4 (human) (P16410 36-162 limits assumed): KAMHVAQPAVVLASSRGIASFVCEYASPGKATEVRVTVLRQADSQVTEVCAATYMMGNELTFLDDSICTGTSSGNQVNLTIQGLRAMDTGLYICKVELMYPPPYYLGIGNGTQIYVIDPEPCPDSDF
Sequence of OFP-tagged human CTLA-4 on CHO cells (human) (P16410 36-223): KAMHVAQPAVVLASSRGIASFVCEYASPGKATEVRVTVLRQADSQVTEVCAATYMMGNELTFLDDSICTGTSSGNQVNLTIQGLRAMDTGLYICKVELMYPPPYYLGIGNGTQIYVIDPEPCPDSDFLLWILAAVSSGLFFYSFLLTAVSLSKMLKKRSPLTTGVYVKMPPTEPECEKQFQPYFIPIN
Sequence of human CTLA-4 on or in cells (T cells of Ctla4 h/h knock-in mice; CHO stable lines and 293T cells expressing hCTLA-4) (human) (P16410 36-223): as above

## B7-H2-GFP on transfected P815 cells (ligand)
[1]
  % GFP+OFP+ cells (upper right quadrant), Mix-0 h: 0.19%
  % GFP+OFP+ cells (upper right quadrant), Mix-1 h: 0.3%
  % GFP+OFP+ cells (upper right quadrant), Mix-4 h: 0.49%

## L3D10 chimera antibody (human IgG1 Fc and the variable regions of mouse anti-human CTLA-4 mAb L3D10)
[2]
  IC50 (read off the curve): 0.2 µg/mL
[3]
  EC50 (read off the curve): 1 µg/mL
[4]
  IC50 (read off the curve): 0.9 µg/mL
[5]
  IC50 (read off the curve): 1 µg/mL
[6]
  IC50 (read off the curve): 0.4 µg/mL
[7]
  IC50 (read off the curve): 0.1 µg/mL
[8]
  IC50: 0.1 µg/mL
[9]
  IC50 (read off the curve): 8 µg/mL
[10]
  level of hB7-2 on DC of human CD34+ reconstituted NSG mice: 2.5 fold
[11]
  IC50 (read off the curve): 2 µg/mL
[12]
  Kd: 2.3 nM
[13]
  IC50 (read off the curve): 1 µg/mL
[14]
  IC50: 3 µg/mL
  lowest concentration with significant blocking: 0.2 µg/mL

## hamster anti-mouse Ctla-4 mAb 4F10 (antibody)
[15]
  IC50 (read off the curve): 1 µg/mL
[16]
  IC50 (read off the curve): 0.3 µg/mL

B1: anti-mouse Ctla-4 mAb 9D9 (antibody, V domains shown)
VH: EAKLQESGPVLVKPGASVKMSCKASGYTFTDYYMNWVKQSHGKSLEWIGVINPYNGDTSYNQKFKGKATLTVDKSSSTAYMELNSLTSEDSAVYYCARYYGSWFAYWGQGTLITVST
VL: DIVMTQTTLSLPVSLGDQASISCRSSQSIVHSNGNTYLEWYLQKPGQSPKLLIYKVSNRFSGVPDRFSGSGSGTDFTLKISRVEAEDLGVYYCFQGSHVPYTFGGGTKLEIK
[17]
  IC50 (read off the curve): ~2 µg/mL
[18]
  EC50 (read off the curve): ~0.4 µg/mL
[19]
  level of mB7-1 on DC of WT mice: 15%

B2: anti-mouse Ctla-4 mAb 9H10 (antibody, from another filing)
scFv: YPYDVPDYAGAQPARSDIVMTQSPSSLAVSVGEKVTISCKSSQSLLYGSSHYLAWYQQKVGQSPKLLIYWASTRHTGIPDRFIGSGSGTDFTLSLSSVQAEDMADYFCQQYFSTPWTFGAGTRVEIKSGSGGGSGGGSGGGSQVQLLQSESELVKPGASVKLSCKTSGYTFTDYYIHWVKQKPGQGLEWIGLINPNNDGTNYNQKFQGKATLTADKSSSTAYMELNSLTFDDSVIYFCARASSRLRMARTTSDYYAMDYWGQGIQVTVSSVDSSGSGGCKPCICTVPEVSSVFIFPPKPKDVLTITLTPKVTCVVVDISKDDPEVQFSWFVDDVEVHTAQTQPREEQFNSTFRSVSELPIMHQDWLNGKEFKCRVNSAAFPAPIEKTISKTKGRPKAPQVYTIPPPKEQMAKDKVSLTCMITDFFPEDITVEWQWNGQPAENYKNTQPIMDTDGSYFVYSKLNVQKSNWEAGNTFTCSVLHEGLHNHHTEKSLSHSPGK
[20]
  EC50 (read off the curve): 1 µg/mL

B3: HL12 (humanized L3D10 clone) (antibody, from another filing, V domains shown)
VH: QVQLQESGPGLVKPSETLSLTCTVSGFSLTSYGLSWIRQPPGKGLEWIGYIWYDGNTNFHPSLKSRVTISKDTSKNQFSLKLSSVTAADTAVYYCAKTEGHYYGSNYGYYALDYWGQGTSVTVSS
VL: DIQMTQSPSSLSASVGDRVTITCRASENIYSNLAWYQQKQGKAPKLLLYAATNLQDGVPSRFSGSGSGTDYTLTISSLQPEDFATYFCQHLWGTPYTFGQGTKLEIK
[12]
  Kd: 7.2 nM
  koff: 0.0016 s⁻¹
  kon: 230000 M⁻¹ s⁻¹
[21]
  fold reduction of binding at pH 4.5 against pH 7.0 (by increase of IC50): > 100 fold
  fold reduction of binding at pH 5.5 against pH 7.0 (by increase of IC50): > 10 fold
[22]
  fold increase in off-rate against L3D10: 4 fold

B4: HL32 (humanized L3D10 clone) (antibody, from another filing, V domains shown)
VH: QVQLQESGPGLVKPSETLSLTCTVSGFSLTSYGLSWIRQPPGKGLEWIGYIWYDGNTNFHSPLKSRVTISVDTSKNQFSLKLSSVTAADTAVYYCAKTEGHYYGSNYGYYALDYWGQGTLVTVSS
VL: DIQMTQSPSSLSASVGDRVTITCRASENIYSNLAWYQQKQGKAPKLLLYAATNLQDGVPSRFSGSGSGTDYTLTISSLQPEDFATYFCQHLWGTPYTFGQGTKLEIK
[12]
  Kd: 7.1 nM
  koff: 0.0019 s⁻¹
  kon: 270000 M⁻¹ s⁻¹
[21]
  fold reduction of binding at pH 4.5 against pH 7.0 (by increase of IC50): > 100 fold
  fold reduction of binding at pH 5.5 against pH 7.0 (by increase of IC50): > 10 fold
[22]
  fold increase in off-rate against L3D10: 4 fold
